The assay has as its target HLA-A*02:01. The experiment in a line: IEDB peptide-MHC binding, purified MHC/competitive/radioactivity; filed as Kd, often an IC50 or EC50 that approximates it; ≥ and ≤ were set here for values at or beyond the usual limits of such assays. To be noted: source organism: Trypanosoma cruzi.
What is called Kd is the free concentration of one partner at which half of the binding sites on the other are occupied at equilibrium, for simple one-to-one binding. As for VLAKDGTEV, the Kd was determined as 67 nM.

As for LLPSLFLLL, the Kd was 125 nM.

In the case of IAGGVMAVV, the Kd amounted to 196 nM.

Take LLGLWGLTGL: the Kd came to 1.3 nM.

As for PLLLLGLWGL, the Kd was found to be 643 nM.

With VLLPSLFLL, the Kd was 36 nM.

Regarding FVDYNFTIV, the Kd stood at 240 nM.

Regarding LLYSDDALHL, the Kd was 317 nM.

FLYNRPLSV: the Kd was found to be 146 nM.

Regarding GIRPYEILA, the Kd stood at 33 nM.

As to FLLLGLWGFA, the Kd came to 207 nM.

Take WVFPESISPV: the Kd stood at 109 nM.

On to LLLGLWGFAA, for which the Kd amounted to 534 nM.

VLLPSLFLLL: the Kd was determined as 99 nM.

Consider SVYVDAKLV, for which the Kd stood at 102 nM.

As to IVMGNGTLV, the Kd came out at 998 nM.

With KLFPEVIDL, the Kd stood at 203 nM.

For LLLLGLWGL, the Kd stood at 22 nM.

Regarding MLQDGNKGSV, the Kd was 840 nM.

Regarding FVNHDFTVV, the Kd was 300 nM.
